We go through seven molecules from patent US20150203577A1 (Chugai, published 2015).

The target of test [1] is T1, mouse FcγRII extracellular domain, C-terminal His tag (mouse, UniProt P08101 30-210).
T1 construct: Whole entry named; also called mFcγRII; mFcgRII
T1 sequence: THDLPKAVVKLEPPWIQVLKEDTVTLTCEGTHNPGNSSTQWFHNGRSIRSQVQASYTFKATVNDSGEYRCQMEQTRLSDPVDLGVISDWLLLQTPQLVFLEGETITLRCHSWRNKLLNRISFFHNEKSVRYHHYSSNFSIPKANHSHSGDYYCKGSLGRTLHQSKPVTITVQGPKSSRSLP
In words: SPR (Biacore T200); KD of H237-mIgG1/MRAL-k0 / KD of variant. Background: SPR reads the build-up and loss of mass on a sensor chip optically.

In test [2] the target is T2, mouse FcγRIII extracellular domain, C-terminal His tag (mouse, UniProt P08508 31-215).
T2 construct: Whole entry named; also called mFcγRIII; mFcgRIII
T2 chain: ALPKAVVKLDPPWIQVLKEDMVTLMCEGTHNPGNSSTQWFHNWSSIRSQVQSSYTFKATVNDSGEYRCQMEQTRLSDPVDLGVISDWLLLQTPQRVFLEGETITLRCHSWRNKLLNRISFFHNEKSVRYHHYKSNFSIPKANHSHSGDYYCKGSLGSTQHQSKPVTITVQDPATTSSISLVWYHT
The test is described as above.

B1: H237-MB678/MRAL-k0 (antibody)
heavy: QVQLQESGPGLVKPSETLSLTCAVSGHSISHDHAWSWVRQPPGEGLEWIGFISYSGITNYNPSLQGRVTISRDNSKNTLYLQMNSLRAEDTAVYYCARSLARTTAMDYWGEGTLVTVSSAKTTPPSVYPLAPGSAAQTNSMVTLGCLVKGYFPEPVTVTWNSGSLSSGVHTFPAVLQSDLYTLSSSVTVPSSTWPSETVTCNVAHPASSTKVDKKIVPRDCGCKPCICEVKEVEDVFIFPPKPKDVLTITLTPKVTCVVVDISKDDPEVQFSWFVDDVEVHTAQTQPREEQFNSTFRSVSELPIMHQDWLNGKEFKCRVNSAAFPAPIEKTISKTKGRPKAPQVYTIPPPKEQMAKDKVSLTCMITDFFPEDITVEWQWNGQPAENYKNTQPIMDTDGSYFVYSKLNVQKSNWEAGNTFTCSVLHEGLHNHHTEKSLSHSPGK
light: not shown
notes: copies: 2 + 2
B1: the “relative mFcγRII-binding activity (mIgG1 = 1)” value in test [1] was 8.03 fold. For the same molecule, in test [2], the “relative mFcγRIII-binding activity (mIgG1 = 1)” value turned out to be 2.01 fold.

B2: H237-MB679/MRAL-k0 (antibody)
heavy: QVQLQESGPGLVKPSETLSLTCAVSGHSISHDHAWSWVRQPPGEGLEWIGFISYSGITNYNPSLQGRVTISRDNSKNTLYLQMNSLRAEDTAVYYCARSLARTTAMDYWGEGTLVTVSSAKTTPPSVYPLAPGSAAQTNSMVTLGCLVKGYFPEPVTVTWNSGSLSSGVHTFPAVLQSDLYTLSSSVTVPSSTWPSETVTCNVAHPASSTKVDKKIVPRDCGCKPCICEDKEVEDVFIFPPKPKDVLTITLTPKVTCVVVDISKDDPEVQFSWFVDDVEVHTAQTQPREEQFNSTFRSVSELPIMHQDWLNGKEFKCRVNSAAFPAPIEKTISKTKGRPKAPQVYTIPPPKEQMAKDKVSLTCMITDFFPEDITVEWQWNGQPAENYKNTQPIMDTDGSYFVYSKLNVQKSNWEAGNTFTCSVLHEGLHNHHTEKSLSHSPGK
light: not shown
notes: copies: 2 + 2
For B2, the “relative mFcγRII-binding activity (mIgG1 = 1)” value in test [1] was 7.57 fold. Besides, the “relative mFcγRIII-binding activity (mIgG1 = 1)” value in test [2] was found to be 1.68 fold.

B3: H237-MB680/MRAL-k0 (antibody)
heavy: QVQLQESGPGLVKPSETLSLTCAVSGHSISHDHAWSWVRQPPGEGLEWIGFISYSGITNYNPSLQGRVTISRDNSKNTLYLQMNSLRAEDTAVYYCARSLARTTAMDYWGEGTLVTVSSAKTTPPSVYPLAPGSAAQTNSMVTLGCLVKGYFPEPVTVTWNSGSLSSGVHTFPAVLQSDLYTLSSSVTVPSSTWPSETVTCNVAHPASSTKVDKKIVPRDCGCKPCICENKEVEDVFIFPPKPKDVLTITLTPKVTCVVVDISKDDPEVQFSWFVDDVEVHTAQTQPREEQFNSTFRSVSELPIMHQDWLNGKEFKCRVNSAAFPAPIEKTISKTKGRPKAPQVYTIPPPKEQMAKDKVSLTCMITDFFPEDITVEWQWNGQPAENYKNTQPIMDTDGSYFVYSKLNVQKSNWEAGNTFTCSVLHEGLHNHHTEKSLSHSPGK
light: not shown
notes: copies: 2 + 2
With B3, the “relative mFcγRII-binding activity (mIgG1 = 1)” value in test [1] stood at 8.97 fold. For the same molecule, the “relative mFcγRIII-binding activity (mIgG1 = 1)” value in test [2] was 1.75 fold.

B4: H237-MB681/MRAL-k0 (antibody)
heavy: QVQLQESGPGLVKPSETLSLTCAVSGHSISHDHAWSWVRQPPGEGLEWIGFISYSGITNYNPSLQGRVTISRDNSKNTLYLQMNSLRAEDTAVYYCARSLARTTAMDYWGEGTLVTVSSAKTTPPSVYPLAPGSAAQTNSMVTLGCLVKGYFPEPVTVTWNSGSLSSGVHTFPAVLQSDLYTLSSSVTVPSSTWPSETVTCNVAHPASSTKVDKKIVPRDCGCKPCICEPKEVEDVFIFPPKPKDVLTITLTPKVTCVVVDISKDDPEVQFSWFVDDVEVHTAQTQPREEQFNSTFRSVSELPIMHQDWLNGKEFKCRVNSAAFPAPIEKTISKTKGRPKAPQVYTIPPPKEQMAKDKVSLTCMITDFFPEDITVEWQWNGQPAENYKNTQPIMDTDGSYFVYSKLNVQKSNWEAGNTFTCSVLHEGLHNHHTEKSLSHSPGK
light: not shown
notes: copies: 2 + 2
Regarding B4, the “relative mFcγRII-binding activity (mIgG1 = 1)” value in test [1] is 13.9 fold. The “relative mFcγRIII-binding activity (mIgG1 = 1)” value in test [2] amounted to 1.83 fold.

B5: H237-MB684/MRAL-k0 (antibody)
heavy: QVQLQESGPGLVKPSETLSLTCAVSGHSISHDHAWSWVRQPPGEGLEWIGFISYSGITNYNPSLQGRVTISRDNSKNTLYLQMNSLRAEDTAVYYCARSLARTTAMDYWGEGTLVTVSSAKTTPPSVYPLAPGSAAQTNSMVTLGCLVKGYFPEPVTVTWNSGSLSSGVHTFPAVLQSDLYTLSSSVTVPSSTWPSETVTCNVAHPASSTKVDKKIVPRDCGCKPCICQPKEVEDVFIFPPKPKDVLTITLTPKVTCVVVDISKDDPEVQFSWFVDDVEVHTAQTQPREEQFNSTFRSVSELPIMHQDWLNGKEFKCRVNSAAFPAPIEKTISKTKGRPKAPQVYTIPPPKEQMAKDKVSLTCMITDFFPEDITVEWQWNGQPAENYKNTQPIMDTDGSYFVYSKLNVQKSNWEAGNTFTCSVLHEGLHNHHTEKSLSHSPGK
light: not shown
notes: copies: 2 + 2
For B5, the “relative mFcγRII-binding activity (mIgG1 = 1)” value in test [1] was 5.37 fold. Also, the “relative mFcγRIII-binding activity (mIgG1 = 1)” value in test [2] is 1.02 fold.

B6: H237-MB683/MRAL-k0 (antibody)
heavy: QVQLQESGPGLVKPSETLSLTCAVSGHSISHDHAWSWVRQPPGEGLEWIGFISYSGITNYNPSLQGRVTISRDNSKNTLYLQMNSLRAEDTAVYYCARSLARTTAMDYWGEGTLVTVSSAKTTPPSVYPLAPGSAAQTNSMVTLGCLVKGYFPEPVTVTWNSGSLSSGVHTFPAVLQSDLYTLSSSVTVPSSTWPSETVTCNVAHPASSTKVDKKIVPRDCGCKPCICETKEVEDVFIFPPKPKDVLTITLTPKVTCVVVDISKDDPEVQFSWFVDDVEVHTAQTQPREEQFNSTFRSVSELPIMHQDWLNGKEFKCRVNSAAFPAPIEKTISKTKGRPKAPQVYTIPPPKEQMAKDKVSLTCMITDFFPEDITVEWQWNGQPAENYKNTQPIMDTDGSYFVYSKLNVQKSNWEAGNTFTCSVLHEGLHNHHTEKSLSHSPGK
light: not shown
notes: copies: 2 + 2
As for B6, the “relative mFcγRII-binding activity (mIgG1 = 1)” value in test [1] came out at 7.7 fold. In test [2], the “relative mFcγRIII-binding activity (mIgG1 = 1)” value was found to be 0.9 fold.

B7: H237-MB682/MRAL-k0 (antibody)
heavy: QVQLQESGPGLVKPSETLSLTCAVSGHSISHDHAWSWVRQPPGEGLEWIGFISYSGITNYNPSLQGRVTISRDNSKNTLYLQMNSLRAEDTAVYYCARSLARTTAMDYWGEGTLVTVSSAKTTPPSVYPLAPGSAAQTNSMVTLGCLVKGYFPEPVTVTWNSGSLSSGVHTFPAVLQSDLYTLSSSVTVPSSTWPSETVTCNVAHPASSTKVDKKIVPRDCGCKPCICEPKEVEDVFIFPPKPKDVLTITLTPKVTCVVVDISKDDPEVQFSWFVDDVEVHTAQTQPREEQFNSTFRSVSELPIMHQDWLNGKEFKCRVNSAAFPAPIEKTISKTKGRPKAPQVYTIPPPKEQMAKDKVSLTCMITDFFPEDITVEWQWNGQPAENYKNTQPIMDTDGSYFVYSKLNVQKSNWEAGNTFTCSVLHEGLHNHHTEKSLSHSPGK
light: not shown
notes: copies: 2 + 2
As to B7, the “relative mFcγRII-binding activity (mIgG1 = 1)” value in test [1] was 14 fold. Further, the “relative mFcγRIII-binding activity (mIgG1 = 1)” value in test [2] was 2.14 fold.
